Values quoted from earlier work, collected in publication PMC7355470.
Read-outs that look alike come from different tables or passages of the source.

Legend:
PSGL-1 (Homo sapiens) [1] = molecular target: PSGL-1 (Homo sapiens) (UniProt Q14242)
ESL-1 (Mus musculus) = ESL-1 (Mus musculus) (UniProt Q61543); assay: SPR
PSGL-1 (Homo sapiens) [2] = molecular target: PSGL-1 (Homo sapiens) (UniProt Q14242); remark: listed apart in the source
GlyCAM-1 = GlyCAM-1 (UniProt Q02596)
[3] = molecular target: PSGL-1 glycosulfopeptide N-terminal binding region peptide (Homo sapiens) (UniProt Q14242)
[4] = molecular target: PSGL-1 glycosulfopeptide N-terminal binding region peptide (Homo sapiens) (UniProt Q14242); remark: listed apart in the source
[5] = molecular target: PSGL-1 glycosulfopeptide N-terminal binding region peptide (Homo sapiens) (UniProt Q14242); remark: listed apart in the source
[6] = molecular target: PSGL-1 glycopeptide (non-sulfated) N-terminal binding region peptide (Homo sapiens) (UniProt Q14242)
[7] = molecular target: L-selectin (Homo sapiens) (UniProt P14151)
[8] = molecular target: E-selectin (Homo sapiens) (UniProt P16581)
[9] = molecular target: P-selectin (Homo sapiens) (UniProt P16109)
[10] = molecular target: P-selectin (Homo sapiens) (UniProt P16109); remark: listed apart in the source
[11] = molecular target: P-selectin (Homo sapiens) (UniProt P16109); remark: listed apart in the source
[12] = molecular target: P-selectin (Homo sapiens) (UniProt P16109); remark: listed apart in the source
[13] = molecular target: P-selectin (Homo sapiens) (UniProt P16109); remark: listed apart in the source

PSGL-1, sequence (Q14242 42-320): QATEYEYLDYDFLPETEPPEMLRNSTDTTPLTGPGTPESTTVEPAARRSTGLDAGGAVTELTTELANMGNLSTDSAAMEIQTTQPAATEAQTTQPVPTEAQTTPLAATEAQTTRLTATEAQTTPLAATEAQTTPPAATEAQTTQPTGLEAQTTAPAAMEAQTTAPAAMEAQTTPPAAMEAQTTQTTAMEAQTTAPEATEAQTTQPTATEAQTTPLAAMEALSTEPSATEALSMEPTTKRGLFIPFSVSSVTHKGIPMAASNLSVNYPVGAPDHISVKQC
UniProt Q61543, sequence (Q61543 28-1141): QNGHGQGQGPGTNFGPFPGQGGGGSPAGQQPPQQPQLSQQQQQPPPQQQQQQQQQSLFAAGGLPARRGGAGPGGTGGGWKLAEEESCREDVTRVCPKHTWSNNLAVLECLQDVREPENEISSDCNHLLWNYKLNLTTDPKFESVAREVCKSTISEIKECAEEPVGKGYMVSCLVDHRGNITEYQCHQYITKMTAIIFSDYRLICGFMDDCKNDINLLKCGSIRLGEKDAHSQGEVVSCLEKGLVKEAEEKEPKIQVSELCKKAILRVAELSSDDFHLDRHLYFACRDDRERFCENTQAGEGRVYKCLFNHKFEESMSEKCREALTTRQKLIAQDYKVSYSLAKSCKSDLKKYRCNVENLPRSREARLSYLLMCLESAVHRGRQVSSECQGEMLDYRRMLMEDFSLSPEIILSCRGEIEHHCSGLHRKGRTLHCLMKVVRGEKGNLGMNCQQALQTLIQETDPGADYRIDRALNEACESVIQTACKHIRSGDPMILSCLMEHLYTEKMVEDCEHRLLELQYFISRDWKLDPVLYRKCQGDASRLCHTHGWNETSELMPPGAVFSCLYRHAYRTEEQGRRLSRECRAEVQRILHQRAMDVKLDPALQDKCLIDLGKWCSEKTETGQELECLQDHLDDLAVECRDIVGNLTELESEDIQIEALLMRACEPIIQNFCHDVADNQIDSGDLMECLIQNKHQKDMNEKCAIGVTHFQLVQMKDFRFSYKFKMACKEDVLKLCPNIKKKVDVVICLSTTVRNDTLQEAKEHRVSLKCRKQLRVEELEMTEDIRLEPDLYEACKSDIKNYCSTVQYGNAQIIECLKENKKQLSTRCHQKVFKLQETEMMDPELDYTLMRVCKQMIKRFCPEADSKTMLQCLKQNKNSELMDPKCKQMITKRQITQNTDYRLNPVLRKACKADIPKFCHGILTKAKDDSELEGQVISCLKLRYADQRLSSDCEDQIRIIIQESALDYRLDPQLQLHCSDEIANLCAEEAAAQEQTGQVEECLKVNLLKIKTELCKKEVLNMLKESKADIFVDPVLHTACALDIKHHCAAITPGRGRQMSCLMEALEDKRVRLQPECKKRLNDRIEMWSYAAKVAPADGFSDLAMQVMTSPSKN
UniProt Q02596, sequence (Q02596 20-151): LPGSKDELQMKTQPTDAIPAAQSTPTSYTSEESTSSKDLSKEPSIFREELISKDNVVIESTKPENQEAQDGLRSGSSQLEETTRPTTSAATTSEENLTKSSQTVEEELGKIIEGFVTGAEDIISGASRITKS
PSGL-1 glycopeptide (non-sulfated), sequence (Q14242 42-320): as the sequence (Q14242 42-320) above

**Q.** For E-selectin (from UniProt P16581), which Kd (PSGL-1 (Homo sapiens) [1]) is on record?
**A.** The Kd was 15 µM.

**Q.** And the Kd (ESL-1 (Mus musculus))?
**A.** The Kd was 62 µM.

**Q.** Which Kd (ESL-1 (Mus musculus)) does the source give for E-selectin (from UniProt Q00690) here?
**A.** Its Kd is 62 µM.

**Q.** With L-selectin (from UniProt P14151) as the substance, how does the Kd (PSGL-1 (Homo sapiens) [2]) read?
**A.** Its Kd is 5 µM.

**Q.** Which Kd (GlyCAM-1) does the source give for L-selectin (from UniProt P18337) here?
**A.** Its Kd is 108 µM.

**Q.** Which results are given for P-selectin (from UniProt P16109)?
**A.** Kd [3]: 6 µM; Kd [4]: 0.65 µM; Kd [5]: 10 µM; Kd [6]: 25 µM

**Q.** Which Kd [7] does the source give for PSGL-1 (from UniProt Q14242) here?
**A.** The Kd was 5 µM.

**Q.** And the Kd [8]?
**A.** Its Kd is 15 µM.

**Q.** And the Kd [9]?
**A.** Its Kd is 0.32 µM.

**Q.** For “PSGL-1 glucosulfopeptide (from UniProt Q14242)”, which Kd [10] is on record?
**A.** Its Kd is 6 µM.

**Q.** And the Kd [11]?
**A.** The Kd was 10 µM.

**Q.** What about the Kd [12] of the same substance?
**A.** The Kd was 0.65 µM.

**Q.** Which Kd [13] does the source give for “PSGL-1 glycopeptide (non-sulfated) (from UniProt Q14242)” here?
**A.** Its Kd is 25 µM.
